Source: publication PMC8586454, “Structural and Functional Insights Into Skl and Pal Endolysins, Two Cysteine-Amidases With Anti-pneumococcal Activity. Dithiothreitol (DTT) Effect on Lytic Activity” (Frontiers in Microbiology, 2021)

How the values were obtained:
[1] = biological target: Skl Y264H mutant (Streptococcus mitis prophage φSK137); test: AUC; sedimentation velocity, 20°C, PB pH 6.5, under the conditions of the CD titration; choline saturating the lower affinity sites
[2] = biological target: Skl Y264H mutant (Streptococcus mitis prophage φSK137); test: AUC; sedimentation equilibrium, 20°C, 50 mM Tris–HCl pH 8.0, increasing choline
[3] = biological target: Skl endolysin (N-acetylmuramoyl-L-alanine amidase of the Streptococcus mitis prophage φSK137), wild type (Streptococcus mitis prophage φSK137); test: AUC; sedimentation velocity, 20°C, PB pH 6.5, under the conditions of the CD titration; choline saturating the lower affinity sites
[4] = biological target: Skl endolysin (N-acetylmuramoyl-L-alanine amidase of the Streptococcus mitis prophage φSK137), wild type (Streptococcus mitis prophage φSK137); test: SAXS; 4°C, 20 mM PB (Pal) or 50 mM Tris–HCl (Skl) pH 8.0, 2–8 mg/ml protein extrapolated to infinite dilution, saturating choline
[5] = biological target: Skl endolysin (N-acetylmuramoyl-L-alanine amidase of the Streptococcus mitis prophage φSK137), wild type (Streptococcus mitis prophage φSK137); test: AUC; sedimentation equilibrium, 20°C, single-species model; choline-saturated
Pal = biological target: T1, Pal (Streptococcus phage Dp-1, UniProt O03979); test: SAXS of choline-bound dimer; assay type: binding; details: 20 mM PB pH 8.0, 4 °C; saturating choline
T1 construct: full-length, untagged, E. coli pT7-7 (pPal, amplified from pMSP11); DEAE-cellulose purified with choline elution, dialysed
T1 sequence (O03979 1-296): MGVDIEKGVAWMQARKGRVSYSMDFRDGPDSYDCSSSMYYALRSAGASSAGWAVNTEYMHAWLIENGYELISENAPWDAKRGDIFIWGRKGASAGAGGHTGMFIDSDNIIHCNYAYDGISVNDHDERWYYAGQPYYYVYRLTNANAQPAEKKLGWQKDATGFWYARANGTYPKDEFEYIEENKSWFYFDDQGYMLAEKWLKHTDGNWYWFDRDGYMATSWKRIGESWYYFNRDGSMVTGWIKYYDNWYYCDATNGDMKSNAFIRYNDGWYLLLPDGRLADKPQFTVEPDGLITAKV

[6] = biological target: the molecule itself; test: SAXS; 4°C, 20 mM PB (Pal) or 50 mM Tris–HCl (Skl) pH 8.0, 2–8 mg/ml protein extrapolated to infinite dilution, saturating choline
[7] = biological target: the molecule itself; test: non-reducing SDS-PAGE (intermolecular disulfide); 0.36 mg/ml protein pretreated with 40 mM iodoacetamide, then 1% SDS, sample buffer without β-mercaptoethanol (SB), 12% gel, Coomassie stain

Skl Y264H mutant (enzyme)
percent remaining as monomer [1]: 50% | stoichiometry N [2]: 2

Skl endolysin (N-acetylmuramoyl-L-alanine amidase of the Streptococcus mitis prophage φSK137), wild type (enzyme)
stoichiometry N [3]: 2 | stoichiometry N [4]: 2 | stoichiometry N [5]: 2

C[N+](C)(C)CCO [choline]
SAXS of choline-bound dimer (Pal): Pal dimer in complex with choline

B1: Pal endolysin (N-acetylmuramoyl-L-alanine amidase of the pneumococcal bacteriophage Dp-1), wild type (enzyme, UniProt O03979 1-296, looked up)
chain: MGVDIEKGVAWMQARKGRVSYSMDFRDGPDSYDCSSSMYYALRSAGASSAGWAVNTEYMHAWLIENGYELISENAPWDAKRGDIFIWGRKGASAGAGGHTGMFIDSDNIIHCNYAYDGISVNDHDERWYYAGQPYYYVYRLTNANAQPAEKKLGWQKDATGFWYARANGTYPKDEFEYIEENKSWFYFDDQGYMLAEKWLKHTDGNWYWFDRDGYMATSWKRIGESWYYFNRDGSMVTGWIKYYDNWYYCDATNGDMKSNAFIRYNDGWYLLLPDGRLADKPQFTVEPDGLITAKV
notes: Pal-coding region amplified from pMSP11; No tag; 1 μM equals 0.0345 mg/ml. 'Full length' rests on 'Pal-coding region was PCR amplified'; also called Pal WT; Pal NAM-amidase; source: E. coli BL21(DE3) or C41(DE3), pT7-7 derivative (pPal), purified (DEAE-cellulose, eluted with choline)
stoichiometry N [6]: 2

B2: Pal C112S mutant (enzyme, pneumococcal bacteriophage Dp-1, UniProt O03979 1-296, looked up)
chain: MGVDIEKGVAWMQARKGRVSYSMDFRDGPDSYDCSSSMYYALRSAGASSAGWAVNTEYMHAWLIENGYELISENAPWDAKRGDIFIWGRKGASAGAGGHTGMFIDSDNIIHSNYAYDGISVNDHDERWYYAGQPYYYVYRLTNANAQPAEKKLGWQKDATGFWYARANGTYPKDEFEYIEENKSWFYFDDQGYMLAEKWLKHTDGNWYWFDRDGYMATSWKRIGESWYYFNRDGSMVTGWIKYYDNWYYCDATNGDMKSNAFIRYNDGWYLLLPDGRLADKPQFTVEPDGLITAKV
modifications: free thiols blocked with iodoacetamide before SDS-PAGE
notes: Pal, NAM-amidase of the pneumococcal Dp-1 bacteriophage, with Cys112 changed to serine; source: E. coli BL21(DE3) or C41(DE3), pT7-7 derivative, purified (DEAE-cellulose, eluted with choline)
binding result [7]: binds

B3: Pal C112S–C250S double mutant (enzyme, pneumococcal bacteriophage Dp-1, UniProt O03979 1-296, looked up)
chain: MGVDIEKGVAWMQARKGRVSYSMDFRDGPDSYDCSSSMYYALRSAGASSAGWAVNTEYMHAWLIENGYELISENAPWDAKRGDIFIWGRKGASAGAGGHTGMFIDSDNIIHSNYAYDGISVNDHDERWYYAGQPYYYVYRLTNANAQPAEKKLGWQKDATGFWYARANGTYPKDEFEYIEENKSWFYFDDQGYMLAEKWLKHTDGNWYWFDRDGYMATSWKRIGESWYYFNRDGSMVTGWIKYYDNWYYSDATNGDMKSNAFIRYNDGWYLLLPDGRLADKPQFTVEPDGLITAKV
modifications: free thiols blocked with iodoacetamide before SDS-PAGE
notes: Pal, NAM-amidase of the pneumococcal Dp-1 bacteriophage, with Cys112 and Cys250 changed to serine; source: E. coli BL21(DE3) or C41(DE3), pT7-7 derivative (made from pPal-C250S), purified (DEAE-cellulose, eluted with choline)
binding result [7]: binds
